# Laboratory results from patent US9926369B2, “Methods for treating hepatocellular cancer by administering an anti-Ang-2 antibody” (Regeneron Pharmaceuticals, Inc., priority 2009, dated 2018).
# Assays:
# hAng-1-WT = biological target: T1, hAng-1-WT (Homo sapiens, UniProt Q15389); experiment: SPR binding to full-length wild-type human Ang-1 (preferential binding)
# T1 construct: Full-length wild-type human Ang-1 or Ang-2 at a concentration of 25 nM or 0.78 nM
# T1 sequence (Q15389 16-498): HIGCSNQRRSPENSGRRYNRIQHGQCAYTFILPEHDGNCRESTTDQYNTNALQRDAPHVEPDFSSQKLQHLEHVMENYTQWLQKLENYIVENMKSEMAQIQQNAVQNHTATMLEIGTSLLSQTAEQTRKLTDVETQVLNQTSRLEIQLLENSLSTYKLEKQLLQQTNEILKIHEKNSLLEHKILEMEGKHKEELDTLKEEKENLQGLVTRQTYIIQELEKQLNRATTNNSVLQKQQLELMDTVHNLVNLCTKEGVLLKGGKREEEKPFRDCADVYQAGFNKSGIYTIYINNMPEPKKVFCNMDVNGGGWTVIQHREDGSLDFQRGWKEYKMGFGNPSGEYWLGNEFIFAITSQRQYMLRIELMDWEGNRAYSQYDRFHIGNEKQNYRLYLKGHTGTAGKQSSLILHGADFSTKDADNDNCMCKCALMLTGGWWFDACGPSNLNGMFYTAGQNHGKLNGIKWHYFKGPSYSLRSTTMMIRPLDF
# Experimental: Binding experiments (plasmon resonance assays) were conducted to ascertain whether selected antibodies bound to both Ang-2 and Ang-1 or if they preferentially bound to Ang-2 only. Each selected antibody or control construct was captured at a flow rate of 40 μL/min for 1 minute on a goat anti-human IgG polyclonal antibody surface created through direct chemical coupling to a BIACORE™ chip to form a captured antibody surface. Full-length wild-type human Ang-1 or Ang-2 at a concentration of 25 nM or 0.78 nM were injected over the captured antibody surface at a flowrate of 60 μL/min for 3 minutes, and antigen-antibody dissociation was monitored in real time for 20 minutes at either 25° C. or 37° C.
# [1] = test system: Tie-2 phosphorylation (Ang-2-mediated) in HUVECs; experiment: Inhibition of Ang-2-mediated Tie-2 phosphorylation in FOXO1-adenovirus infected HUVECs; assay type: cell-based, human; settings: antibody 0.5 μg/ml
# Experimental: Further, the inventors have shown that infection of HUVECs with an adenovirus encoding FOXO1 results in expression and secretion of Ang-2, followed by activation of Tie-2 phosphorylation (Daly et al. 2006 PNAS 103:15491).
# Anti-Ang-2 antibodies were tested for their ability to inhibit Tie-2 phosphorylation. Briefly, 7×10^5 HUVECs (Vec Technologies, Rensselaer, N.Y.) were plated in 6 cm cell culture dishes in 3.5 ml of MCDB131 Complete medium (Vec Technologies, Rensselaer, N.Y.). The following day, the cells were washed with Opti-MEM (Invitrogen Corp., Carlsbad, Calif.) and fed with 2 ml of Opti-MEM. […] Cells were then washed with MCDB131 and fed with 2 ml of MCDB131 containing anti-Ang-2 antibodies at a concentration of 0.5 μg/ml. At twenty hours post infection, cells were lysed and subjected to Tie-2 immunoprecipitation as described by Daly et al., Proc. Natl. Acad. Sci. USA 103:15491-15496 (2006). Immunoglobulin was collected on protein A/G beads (Santa Cruz Biotechnology, Santa Cruz, Calif.) for one hour. […] Signals were detected using HRP-conjugated secondary antibodies and ECL reagents (GE Healthcare, Piscataway, N.J.). X-Ray films were scanned and the phospho-Tie-2 and Tie-2 signals were quantified using ImageJ software. […]
# hAng-2FD-mFc N-467-G = biological target: T2, hAng-2FD-mFc N-467-G (Homo sapiens, UniProt O15123, N467G); experiment: Ang-2FD-mFc point mutant binding experiment (SPR), N-467-G; settings: N-467-G mutant captured; antibody/peptibody at 100 nM; 25° C.
# T2 construct: made in house
# T2 sequence (O15123 with tags, fused parts or gaps N467G): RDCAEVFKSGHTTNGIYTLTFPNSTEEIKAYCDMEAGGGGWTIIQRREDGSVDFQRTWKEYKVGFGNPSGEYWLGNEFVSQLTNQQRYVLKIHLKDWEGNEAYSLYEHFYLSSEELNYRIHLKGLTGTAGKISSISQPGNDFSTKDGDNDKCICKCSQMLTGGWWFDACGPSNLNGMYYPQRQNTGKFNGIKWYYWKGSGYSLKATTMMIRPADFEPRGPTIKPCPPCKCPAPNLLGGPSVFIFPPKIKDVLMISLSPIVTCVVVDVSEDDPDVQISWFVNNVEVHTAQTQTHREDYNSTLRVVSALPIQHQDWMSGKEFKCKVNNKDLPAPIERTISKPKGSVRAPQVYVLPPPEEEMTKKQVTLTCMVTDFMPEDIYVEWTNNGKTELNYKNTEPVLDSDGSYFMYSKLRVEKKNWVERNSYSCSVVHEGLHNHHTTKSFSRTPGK
# Description: To further characterize binding between hAng2 and anti-hAng2 mAbs of the invention, seven variant hAng2-FD-mFc proteins were generated, each containing a single point mutation. Amino acids selected for mutation were based on the difference in sequence between hAng-2 and hAng-1 in the region that interacts with hTie-2 (FIG. 1). In particular, amino acids within the fibrinogen-like domain (FD) of Ang-2 which are believed to interact with Tie-2 based on crystal structure analysis, but which differ from the corresponding amino acid in Ang-1, were individually mutated to the corresponding hAng-1 residue. The results of this example indicate the amino acid residues of hAng-2 with which the Ang-2 preferential binding antibodies interact.
# In this experiment, each of the seven hAng-2FD-mFc mutant proteins were captured (˜147-283 RU) on an anti-mouse-Fc surface created through direct chemical coupling to a BIACORE™ chip. Then each Ang-2 antibody (or peptibody, as the case may be) at 100 nM was injected over the captured mFc-tagged hAng-2FD protein surface at a flowrate of 50 μl/min for 180 sec, and the dissociation of variant hAng2-FD-mFc and antibody was monitored in real time for 20 min at 25° C.
substance,measurement,setting,value
"H1H685P: human anti-Ang-2 antibody, HCVR/LCVR SEQ ID NOs 18/20; also referred to as mAb1 [Antibody H1H685P]","KD, binding to hAng-1-WT",hAng-1-WT; 25° C.,No binding
same,"ka, binding to hAng-1-WT",hAng-1-WT; 25° C.,No binding
same,"kd, binding to hAng-1-WT",hAng-1-WT; 25° C.,No binding
same,"KD, binding to hAng-1-WT",hAng-1-WT; 37° C.,No binding
same,"ka, binding to hAng-1-WT",hAng-1-WT; 37° C.,No binding
same,"kd, binding to hAng-1-WT",hAng-1-WT; 37° C.,No binding
same,Binding to Ang-1 (in words),hAng-1-WT; SPR,does not bind to Ang-1
same,Inhibition of Tie-2 phosphorylation,[1],+++ (75-100%)
same,Inhibition of Tie-2 phosphorylation (in words),[1],Especially robust inhibition
same,Kd,hAng-2FD-mFc N-467-G,9.38 pM
same,RU,hAng-2FD-mFc N-467-G,152.25 RU
